Results taken from the supplement of paper PMC7125110.
± gives the standard error. For part of these data: Variants at the floor of the assay were thinned out.

B1: glmS ribozyme (parent)
chain: AUAAAAGCGCCAGAACUACAGAAAUGUAGUUGACGAGGAGGAGGUUUAUCGAAUUUUCGGCGGAUGCCUCCAAA

Columns and labels:
Settings in all cases: with glucosamine-6-phosphate
glucosamine-6-phosphate [1] = variants of: B1; assay: kcat; higher = faster cleavage; RNA array
Outline: (§1)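 In situ transcription by E. coli RNA polymerase produced barcoded ribozyme variants on sequenced MiSeq chips, and a hybridised Cy3 probe tracked them at 37 °C. Glucosamine-6-phosphate was flowed in at 40 μM to 10 mM in HEPES/KCl/Mg(OAc)2 buffer. kcat and KM were taken from weighted Michaelis–Menten fits of kobs values from exponential decay fits.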

glucosamine-6-phosphate [2] = variants of: B1; assay: self-cleavage kobs at 160 uM GlcN6P; higher = faster cleavage; RNA array
Outline: as §1

glucosamine-6-phosphate [3] = variants of: B1; assay: self-cleavage kobs at 640 uM GlcN6P; higher = faster cleavage; RNA array
Outline: as §1

glucosamine-6-phosphate [4] = variants of: B1; assay: KM; higher = weaker cofactor use; RNA array
Outline: as §1

glucosamine-6-phosphate [5] = variants of: B1; assay: self-cleavage kobs at 40 uM GlcN6P; higher = faster cleavage; RNA array
Outline: as §1

glucosamine-6-phosphate [6] = variants of: B1; assay: self-cleavage kobs at 2500 uM GlcN6P; higher = faster cleavage; RNA array
Outline: as §1

glucosamine-6-phosphate [7] = variants of: B1; assay: self-cleavage kobs at 10000 uM GlcN6P; higher = faster cleavage; RNA array
Outline: as §1

Variant	kcat (glucosamine-6-phosphate [1]) [s⁻¹]	self-cleavage kobs at 160 uM GlcN6P (glucosamine-6-phosphate [2]) [s⁻¹]	self-cleavage kobs at 640 uM GlcN6P (glucosamine-6-phosphate [3]) [s⁻¹]	KM (glucosamine-6-phosphate [4]) [µM]	self-cleavage kobs at 40 uM GlcN6P (glucosamine-6-phosphate [5]) [s⁻¹]	self-cleavage kobs at 2500 uM GlcN6P (glucosamine-6-phosphate [6]) [s⁻¹]	self-cleavage kobs at 10000 uM GlcN6P (glucosamine-6-phosphate [7]) [s⁻¹]
A52G G60U	< 1e-05	< 1e-05	< 1e-05				
U30A U55C	0.0088 ± 0.0027	0.000315 ± 5.6e-05	0.00129 ± 0.00024	3470 ± 1500	0.000194 ± 3.2e-05	0.00471 ± 0.0012	0.00647 ± 0.00073
A6U C67A	7.39e-05 ± 6.8e-06		6.68e-05 ± 1.7e-05			5.62e-05 ± 1.1e-05	7.43e-05 ± 7.2e-06
U54G U56A U69G	5.38e-05 ± 1.1e-05		7.97e-05 ± 1.8e-05		4.11e-05 ± 1.9e-05	4.21e-05 ± 1.1e-05	6e-05 ± 1.8e-05
A14U C70U C71G	4.59e-05 ± 1.2e-05		6.53e-05 ± 1.7e-05			3.73e-05 ± 1.3e-05	3.81e-05 ± 1.8e-05
A14G C68G	0.000237 ± 2.5e-05	4.57e-05 ± 1.1e-05	0.000123 ± 1.6e-05	590 ± 180	3.33e-05 ± 1.1e-05	0.000181 ± 2.1e-05	0.000235 ± 2.4e-05
G32U U45A	0.00202 ± 0.00071	9.56e-05 ± 2.1e-05	0.000279 ± 6.8e-05	3440 ± 1700	0.000103 ± 3.9e-05	0.000762 ± 0.00034	0.00155 ± 0.0003
G9A U54C	0.000246 ± 5.5e-05						3.34e-05 ± 1.3e-05
U30A C70A	6.65e-05 ± 2.4e-05					7.75e-05 ± 1.6e-05	5.12e-05 ± 1.3e-05
G13A U49C	< 1e-05				< 1e-05		< 1e-05
G38A U55C	< 1e-05			37.7 ± 15			
A15C U55G	0.00196 ± 0.00085	0.000255 ± 4.7e-05			0.000128 ± 3e-05	0.00118 ± 0.0002	0.00334 ± 0.00064
A15G U47G U55A	0.0098 ± 0.003		0.00364 ± 0.0011	1860 ± 850	0.000187 ± 5.9e-05	0.00474 ± 0.0016	0.00887 ± 0.003
A36U C50A	< 1e-05	< 1e-05					
C34U U54C C68G	1.64e-05 ± 4.9e-06						
A12C U65A	0.00216 ± 0.00024	0.000134 ± 3.3e-05	0.000345 ± 6.5e-05	2790 ± 570	3.82e-05 ± 8.1e-06	0.000932 ± 0.00017	0.00173 ± 0.00015
G59C C68G	2.78e-05 ± 1e-05						
A6U A52G	< 1e-05	< 1e-05	< 1e-05				
